Measurements reported in publication doi:10.1101/2025.10.16.682781.

Experiments:
Assay in all cases: ITC
[1] = target: FusB-CTD wild type (C-terminal domain of the TonB homologue FusB of Pectobacterium carotovorum LMG2410) (Pectobacterium carotovorum LMG2410)
[2] = target: FusB-CTD D322N (Pectobacterium carotovorum LMG2410)
[3] = target: FusB-CTD R241A (Pectobacterium carotovorum LMG2410)
[4] = target: FusB-CTD R241K (Pectobacterium carotovorum LMG2410)

Substance	Kd [1]	Kd [2]	Kd [3]	Kd [4]
FusANTR-GFP D53A (domain or fragment)	31.6 mM	31.8 mM	–	–
FusANTR-GFP wild type (GFP fusion construct containing the N-terminal region, residues 21-66, of FusA) (domain or fragment)	–	0.0094 mM	38.8 mM	25.3 mM
SpFer E93A/E94A (from UniProt P00221 51-147) (natural protein)	31.3 mM	–	–	–
SpFer F64Y (natural protein)	30.7 mM	–	–	–
